One protein from paper PMC9797636, “Transcriptomic and enzymatic analysis reveals the roles of glutamate dehydrogenase in Corynebacterium glutamicum” (AMB Express, 2022) can be followed below.

What all share (test): purified protein
What all share (format): biochemical, Corynebacterium glutamicum

Substrate in data set [1]: NC(=O)C1=CN([C@@H]2O[C@H](COP(=O)(O)OP(=O)(O)OC[C@H]3O[C@@H](n4cnc5c(N)ncnc54)[C@H](OP(=O)(O)O)[C@@H]3O)[C@@H](O)[C@H]2O)C=CC1
The note with it: reductive amination, 2-oxoglutarate, NH4Cl, Tris-HCl pH 7.0, 25 °C, pH 7.0.

Substrate in data set [2]: O=C(O)CCC(=O)C(=O)O
The settings on record: reductive amination, NADPH, NH4Cl, Tris-HCl pH 7.0, 25 °C, pH 7.0.

Substrate in data set [3]: NC(=O)c1ccc[n+]([C@@H]2O[C@H](COP(=O)(O)OP(=O)(O)OC[C@H]3O[C@@H](n4cnc5c(N)ncnc54)[C@H](OP(=O)(O)O)[C@@H]3O)[C@@H](O)[C@H]2O)c1
The note with it: oxidative deamination, L-glutamate, Tris-HCl, 25 °C.

B1: GdhA (Corynebacterium glutamicum ATCC 13032) (protein)
chain: MTVDEQVSNYYDMLLKRNAGEPEFHQAVAEVLESLKIVLEKDPHYADYGLIQRLCEPERQLIFRVPWVDDQGQVHVNRGFRVQFNSALGPYKGGLRFHPSVNLGIVKFLGFEQIFKNSLTGLPIGGGKGGSDFDPKGKSDLEIMRFCQSFMTELHRHIGEYRDVPAGDIGVGGREIGYLFGHYRRMANQHESGVLTGKGLTWGGSLVRTEATGYGCVYFVSEMIKAKGESISGQKIIVSGSGNVATYAIEKAQELGATVIGFSDSSGWVHTPNGVDVAKLREIKEVRRARVSVYADEVEGATYHTDGSIWDLKCDIALPCATQNELNGENAKTLADNGCRFVAEGANMPSTPEAVEVFRERDIRFGPGKAANAGGVATSALEMQQNASRDSWSFEYTDERLQVIMKNIFKTCAETAAEYGHENDYVVGANIAGFKKVADAMLAQGVI
For orientation: Km means the concentration of substrate that gives half-maximal velocity. One may read the Vmax as the top rate of the reaction or transport when substrate is in excess. As a reminder, the kcat is the maximal rate divided by the concentration of active sites. What is called kcat/Km is the turnover number divided by the Michaelis constant. Turning to B1, in data set [1], the Km was determined as 166 µM, the Vmax came out at 1.54 µmol/min/mg, the kcat came to 0.257 s⁻¹ and the kcat/Km came out at 1540 M⁻¹ s⁻¹. In data set [2], the Km worked out at 2534 µM, the Vmax stood at 0.809 µmol/min/mg, the kcat turned out to be 0.135 s⁻¹ and the catalytic efficiency (kcat/Km) worked out at 53.2 M⁻¹ s⁻¹. Also, in data set [3], the Km was found to be 505 µM, the Vmax turned out to be 1.34 µmol/min/mg, the kcat came out at 0.224 s⁻¹ and the kcat/Km is 443 M⁻¹ s⁻¹.
